This note sets out measurements from US20140106371A1 (DUBLIN CITY UNIVERSITY, published 2014).

B1: H50E (rPA-ILNm protein) (other)
chain: RGSHHHHHHGSMAWKGEVLANNEAGQVTSIIYNPGDVITIVAAGWASYGPTQKWGPQGDREEPDQGLICHDAFCGALVMKIGNSGTIPVNTGLFRWVAPNNVQGAITLIYNDVPGTYGNNSGSFSVNIGKDQS
B2: H50L (rPA-ILNm protein) (other)
chain: B1 chain with E62L
B3: H50V (rPA-ILNm protein) (other)
chain: B1 chain with E62V
B4: H50K (rPA-ILNm protein) (other)
chain: B1 chain with E62K
B5: H50Q (rPA-ILNm protein) (other)
chain: B1 chain with E62Q
B6: H50T (rPA-ILNm protein) (other)
chain: B1 chain with E62T
B7: H50P (rPA-ILNm protein) (other)
chain: B1 chain with E62P
B8: H50A (rPA-ILNm protein) (other)
chain: AWKGEVLANNEAGQVTSIIYNPGDVITIVAAGWASYGPTQKWGPQGDREAPDQGLICHDAFCGALVMKIGNSGTIPVNTGLFRWVAPNNVQGAITLIYNDVPGTYGNNSGSFSVNIGKDQS
notes: not shown: N-terminal RGS-6HIS tag and added vector residues (pQE30)
B9: H50S (rPA-ILNm protein) (other)
chain: B8 chain with A50S
notes: as for B8
B10: H50R (rPA-ILNm protein) (other)
chain: B8 chain with A50R
notes: as for B8
B11: H50F (rPA-ILNm protein) (other)
chain: B8 chain with A50F
notes: as for B8

Changes are numbered by the printed parent chain. Names and notes keep the numbering of the source.

The assay deals with T1, asialotransferrin (human, UniProt P02787 20-698, N-linked glycans desialylated with neuraminidase (Clostridium perfingens), exposing terminal LacNAc (β1,4-linked galactose); partially desialylated by paragraph 70).
T1 construct: Same polypeptide as transferrin; differs only in glycans; also called AsT
T1 sequence (P02787 20-698 limits assumed): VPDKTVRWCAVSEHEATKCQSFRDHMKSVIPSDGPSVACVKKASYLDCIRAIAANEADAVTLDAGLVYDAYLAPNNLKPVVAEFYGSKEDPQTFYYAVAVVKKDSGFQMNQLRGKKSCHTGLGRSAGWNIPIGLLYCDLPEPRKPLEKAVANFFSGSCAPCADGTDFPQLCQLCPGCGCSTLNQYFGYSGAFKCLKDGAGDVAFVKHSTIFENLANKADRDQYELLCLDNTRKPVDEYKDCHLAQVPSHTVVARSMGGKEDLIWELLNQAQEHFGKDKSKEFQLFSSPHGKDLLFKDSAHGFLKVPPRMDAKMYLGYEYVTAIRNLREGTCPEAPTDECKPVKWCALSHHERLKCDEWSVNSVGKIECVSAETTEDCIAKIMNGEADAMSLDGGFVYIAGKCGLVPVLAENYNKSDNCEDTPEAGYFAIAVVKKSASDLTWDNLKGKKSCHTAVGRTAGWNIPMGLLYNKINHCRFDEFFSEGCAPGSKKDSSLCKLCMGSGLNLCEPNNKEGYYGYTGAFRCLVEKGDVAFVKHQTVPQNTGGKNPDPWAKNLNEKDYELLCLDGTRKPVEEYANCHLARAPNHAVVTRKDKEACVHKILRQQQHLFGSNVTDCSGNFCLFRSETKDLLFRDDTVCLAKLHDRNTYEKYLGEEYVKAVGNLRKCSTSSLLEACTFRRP
Briefly: qualitative ELLA.
Take B1: the binding result was “no binding (tested: 2 µg mL^-1)”.

Take B2: the binding result was “no binding (tested: 2 µg mL^-1)”.

Take B3: the binding result is “no binding (tested: 2 µg mL^-1)”.

As for B4, the binding result is given as “no binding (tested: 2 µg mL^-1)”.

Take B5: the binding result is “no binding (tested: 2 µg mL^-1)”.

As to B6, the binding result is listed as “no binding (tested: 2 µg mL^-1)”.

B7: the binding result is “no binding (tested: 2 µg mL^-1)”.

With B8, the binding result is listed as “no binding (tested: 2 µg mL^-1)”.

For the molecule B9, the binding result is “no binding (tested: 2 µg mL^-1)”.

For the molecule B10, the binding result was “no binding (tested: 2 µg mL^-1)”.

Consider B11, for which the binding result was “no binding (tested: 2 µg mL^-1)”.
